Reference: patent US20250026836A1 (UCB, published 2025)
Changes are numbered by the printed parent chain.

B1: 12389 (chimeric rabbit V regions/human Fc) expressed as hIgG1 (antibody, V domains shown)
VH: QSVEESGGRLVTPGTPLTLTCTVSGIDLSSNAMSWVRQAPGEGLEWIGTISSGGRTYYASWAKGRFTISKTSTTVDLKIPSPTTEDTATYFCGRGDGATGFNIWGPGTLVTVSS
VL: ALVMTQTPASVSEPVGGTVTIKCQASQSIYSYLSWYQQKPGQPPKLLIYKASTLASGVSSRFKGSGSGTQFTLTISDLECGDAATYYCQNHWNVGGNGWPFGGGTEVVVK
B2: Rabbit Fab (VR12389) (Fab, V domains shown)
VH: B1 VH
VL: ALVMTQTPASVSEPVGGTVTIKCQASQSIYSYLSWYQQKPGQPPKLLIYKASTLASGVSSRFKGSGSGTQFTLTISDLECGDAATYYCQNHWNVGGNGWPFGGGTEVVVKR
notes: Used for the crystal structure; also called VR12389 RbFab
B3: 12389gL2gH1 hIgG4P (antibody)
heavy: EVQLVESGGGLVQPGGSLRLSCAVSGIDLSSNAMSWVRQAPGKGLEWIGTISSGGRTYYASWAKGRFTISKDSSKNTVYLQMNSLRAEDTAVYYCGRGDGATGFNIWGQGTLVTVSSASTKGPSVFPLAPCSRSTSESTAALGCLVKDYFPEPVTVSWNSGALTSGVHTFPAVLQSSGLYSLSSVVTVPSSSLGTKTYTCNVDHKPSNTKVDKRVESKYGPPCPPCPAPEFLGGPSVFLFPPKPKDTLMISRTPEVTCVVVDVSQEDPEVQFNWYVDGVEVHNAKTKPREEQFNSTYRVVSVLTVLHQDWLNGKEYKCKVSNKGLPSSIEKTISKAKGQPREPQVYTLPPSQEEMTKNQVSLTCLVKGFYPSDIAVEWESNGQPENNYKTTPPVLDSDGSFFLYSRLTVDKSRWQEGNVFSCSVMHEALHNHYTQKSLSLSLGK
light: AIVLTQSPSSLSASVGDRVTITCQASQSIYSYLSWYQQKPGKAPKLLIYKASTLASGVPSRFSGSGSGTDFTLTISSLQPEDFATYYCQNHWNVGGNGWPFGGGTKVEIKRTVAAPSVFIFPPSDEQLKSGTASVVCLLNNFYPREAKVQWKVDNALQSGNSQESVTEQDSKDSTYSLSSTLTLSKADYEKHKVYACEVTHQGLSSPVTKSFNRGEC
B4: 12389gL1gH1 hIgG4P (antibody, V domains shown)
VH: EVQLVESGGGLVQPGGSLRLSCAVSGIDLSSNAMSWVRQAPGKGLEWIGTISSGGRTYYASWAKGRFTISKDSSKNTVYLQMNSLRAEDTAVYYCGRGDGATGFNIWGQGTLVTVSS
VL: AIVLTQSPSSLSASVGDRVTITCQASQSIYSYLSWYQQKPGKAPKLLIYKASTLASGVPSRFSGSGSGTQFTLTISSLQPEDFATYYCQNHWNVGGNGWPFGGGTKVEIKR
B5: 12389gL3gH16 hIgG4P (antibody)
heavy: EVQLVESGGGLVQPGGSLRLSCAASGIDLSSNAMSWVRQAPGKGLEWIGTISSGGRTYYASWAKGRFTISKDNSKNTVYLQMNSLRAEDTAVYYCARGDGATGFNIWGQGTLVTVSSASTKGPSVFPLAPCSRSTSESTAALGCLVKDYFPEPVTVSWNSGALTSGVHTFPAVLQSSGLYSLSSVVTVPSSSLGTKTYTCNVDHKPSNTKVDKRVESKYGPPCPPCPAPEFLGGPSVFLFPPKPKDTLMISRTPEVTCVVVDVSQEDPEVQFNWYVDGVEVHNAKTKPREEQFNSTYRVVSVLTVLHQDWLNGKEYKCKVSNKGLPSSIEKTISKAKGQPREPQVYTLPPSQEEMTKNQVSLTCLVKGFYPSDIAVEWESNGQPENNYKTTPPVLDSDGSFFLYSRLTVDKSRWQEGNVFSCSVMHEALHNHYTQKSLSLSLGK
light: B3 light with V3Q
B6: 12389gL2gH6 hIgG4P (antibody, V domains shown)
VH: B4 VH with G49S
VL: B4 VL with Q70D
B7: 12389gL2gH4 hIgG4P (antibody, V domains shown)
VH: B4 VH with V24A
VL: B4 VL with Q70D
B8: 12389gL2gH8 hIgG4P (antibody, V domains shown)
VH: B4 VH with K71R
VL: B4 VL with Q70D
B9: 12389gL2gH5 hIgG4P (antibody, V domains shown)
VH: B4 VH with I48V
VL: B4 VL with Q70D
B10: 12389gL3gH1 hIgG4P (antibody)
heavy: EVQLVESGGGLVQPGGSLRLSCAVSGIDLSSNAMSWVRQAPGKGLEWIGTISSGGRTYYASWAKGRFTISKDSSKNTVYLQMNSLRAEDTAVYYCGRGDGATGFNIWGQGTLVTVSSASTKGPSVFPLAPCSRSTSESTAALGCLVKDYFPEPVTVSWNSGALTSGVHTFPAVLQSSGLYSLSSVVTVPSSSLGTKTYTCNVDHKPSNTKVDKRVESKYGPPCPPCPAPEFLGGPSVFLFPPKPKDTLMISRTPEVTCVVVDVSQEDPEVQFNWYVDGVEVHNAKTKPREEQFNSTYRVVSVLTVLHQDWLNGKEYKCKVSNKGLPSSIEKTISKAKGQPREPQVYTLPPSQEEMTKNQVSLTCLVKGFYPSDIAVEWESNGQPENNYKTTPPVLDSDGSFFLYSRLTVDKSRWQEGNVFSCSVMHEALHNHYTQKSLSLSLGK
light: B3 light with V3Q
B11: 12389gL2gH16 hIgG4P (antibody)
heavy: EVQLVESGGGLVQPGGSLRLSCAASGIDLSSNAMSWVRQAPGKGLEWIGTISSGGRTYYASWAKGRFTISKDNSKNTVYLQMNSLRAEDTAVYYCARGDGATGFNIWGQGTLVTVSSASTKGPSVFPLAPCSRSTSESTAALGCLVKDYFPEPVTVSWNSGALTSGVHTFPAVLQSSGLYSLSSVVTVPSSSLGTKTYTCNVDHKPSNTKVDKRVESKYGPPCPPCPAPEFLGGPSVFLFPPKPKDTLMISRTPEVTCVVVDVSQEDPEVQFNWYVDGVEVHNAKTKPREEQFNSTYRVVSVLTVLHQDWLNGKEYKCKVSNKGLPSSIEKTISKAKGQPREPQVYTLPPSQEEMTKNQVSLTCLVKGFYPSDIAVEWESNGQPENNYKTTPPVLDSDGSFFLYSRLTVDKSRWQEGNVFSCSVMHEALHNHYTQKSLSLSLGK
light: B3 light
notes: also called Graft 12389gL2gH16
B12: 12389gL2gH14 hIgG4P (antibody, V domains shown)
VH: B4 VH with V24A, G96A
VL: B4 VL with Q70D
B13: 12389gL2gH15 hIgG4P (antibody, V domains shown)
VH: B4 VH with S73N, G96A
VL: B4 VL with Q70D
B14: 12389gL2gH12 hIgG4P (antibody, V domains shown)
VH: B4 VH with G96A
VL: B4 VL with Q70D
B15: 12389gL2gH11 hIgG4P (antibody, V domains shown)
VH: B4 VH with V78L
VL: B4 VL with Q70D
B16: 12389gL2gH13 hIgG4P (antibody, V domains shown)
VH: B4 VH with V24A, S73N
VL: B4 VL with Q70D
B17: 12389gL2gH9 hIgG4P (antibody, V domains shown)
VH: B4 VH with S73N
VL: B4 VL with Q70D
B18: 12389 (chimeric rabbit V regions/human Fc) expressed as hIgG4P (antibody, V domains shown)
VH: B1 VH
VL: B1 VL

What follows are binders tested against T1, Human HLA-G ECD + B2m (soluble, AVItev10His tag) (human) (assay: SPR, 25 C, hIgG1 captured via anti-human Fc, HLA-G ECD+B2m 50 nM as analyte, second experiment).
T1 construct: also called soluble HLA-G

Row | Kd [nM] | koff [s⁻¹] | kon [M⁻¹ s⁻¹] | Binder
1 | 11.7 | 0.00918 | 782000 | B1

Each binder was assayed against T1, Human HLA-G ECD + B2m (soluble, …) (assay: SPR, 25 C, hIgG1 captured via anti-human Fc, HLA-G ECD+B2m 50 nM as analyte, first experiment).

Row | Kd [nM] | koff [s⁻¹] | kon [M⁻¹ s⁻¹] | Binder
2 | 10.8 | 0.0091 | 841000 | B1

Each binder was assayed against T2, PeptideB2mHLAG C42S mut (single-chain peptide-B2m-HLA-G ECD fusion, His tag removed) (human) (assay: complex formation and size exclusion chromatography before crystallisation).
T2 construct: Used for complexing and in the crystal structure; also called HLA-G fusion protein

Row | binding result | Binder
3 | binds | B2

These binders were tested against T1, Human HLA-G ECD + B2m (soluble, …) (assay: SPR, 25 C, hIgG4P captured via anti-human Fc, HLA-G ECD+B2m 50 nM as analyte;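 further: biacore T200 readout, 60 s association then 150 s dissociation, reference-cell background subtracted, kinetics fitted to a 1:1 binding model with local Rmax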).

Row | Kd [nM] | koff [s⁻¹] | kon [M⁻¹ s⁻¹] | Binder
4 | 7.63 | 0.00708 | 928000 | B3
5 | 7.99 | 0.00678 | 848000 | B4
6 | 6.72 | – | – | B5
7 | 12.5 | 0.0104 | 839000 | B6
8 | 8.09 | 0.00718 | 888000 | B7
9 | 15.4 | 0.0121 | 787000 | B8
10 | 12.4 | 0.0101 | 817000 | B9
11 | 8.25 | 0.00697 | 845000 | B10
12 | 6.06 | – | – | B11
13 | 7.58 | 0.00664 | 875000 | B12
14 | 6.33 | 0.00567 | 896000 | B13
15 | 7.39 | 0.00624 | 844000 | B14
16 | 10.7 | 0.00907 | 850000 | B15
17 | 6.61 | 0.00632 | 956000 | B16
18 | 7.09 | 0.00603 | 850000 | B17
19 | 9.69 | 0.0092 | 949000 | B18
